According to publication PMC9482650, “Quantitative fragmentomics allow affinity mapping of interactomes” (Nature Communications, 2022):

Key:
Experiment in all cases: holdup assay
Set-up in all cases: key: below the threshold = too weak to quantify, mostly under pKd 3.1 to 4
Conditions in all cases: plain residues with an end cap or a label only (N-terminal biotin on a linker: ado-ado)
MPP7, Q5T2T1 = target: T1, MPP7, Q5T2T1
T1 sequence (Q5T2T1 134-230, limits assumed, looked up): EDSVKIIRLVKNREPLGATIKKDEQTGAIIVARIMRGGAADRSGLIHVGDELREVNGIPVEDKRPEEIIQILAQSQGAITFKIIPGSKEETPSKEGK

GOPC, Q9HD26 = target: GOPC, Q9HD26
MPDZ_12, O75970 = target: T2, MPDZ_12, O75970
T2 sequence (O75970 1857-1958, limits assumed, looked up): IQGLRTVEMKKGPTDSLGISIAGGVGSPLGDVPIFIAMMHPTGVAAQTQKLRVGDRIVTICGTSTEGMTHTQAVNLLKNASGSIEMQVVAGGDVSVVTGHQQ

PDZRN3_1, Q9UPQ7 = target: T3, PDZRN3_1, Q9UPQ7
T3 sequence (Q9UPQ7 244-349, limits assumed, looked up): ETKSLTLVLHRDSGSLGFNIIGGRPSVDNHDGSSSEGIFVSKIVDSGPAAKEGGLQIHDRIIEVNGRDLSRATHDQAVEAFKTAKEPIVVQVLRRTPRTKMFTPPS

MAGI2_4, Q86UL8 = target: MAGI2_4, Q86UL8
Sequence of MAGI2_4, Q86UL8 (Q86UL8 772-865): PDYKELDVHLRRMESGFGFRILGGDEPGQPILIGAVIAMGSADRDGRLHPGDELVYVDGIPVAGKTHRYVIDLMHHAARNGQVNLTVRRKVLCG

DLG3_3, Q92796 = target: T4, DLG3_3, Q92796
T4 sequence (Q92796 374-475, limits assumed, looked up): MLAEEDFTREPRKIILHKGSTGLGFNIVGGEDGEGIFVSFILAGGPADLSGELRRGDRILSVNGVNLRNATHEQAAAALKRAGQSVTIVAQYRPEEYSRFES

RHPN1, Q8TCX5 = target: T5, RHPN1, Q8TCX5
T5 sequence (Q8TCX5 508-602, limits assumed, looked up): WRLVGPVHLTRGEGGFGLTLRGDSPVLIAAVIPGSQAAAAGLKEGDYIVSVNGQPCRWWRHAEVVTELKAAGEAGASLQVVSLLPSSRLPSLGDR

LDB3, O75112 = target: LDB3, O75112
Sequence of LDB3, O75112 (O75112 1-94): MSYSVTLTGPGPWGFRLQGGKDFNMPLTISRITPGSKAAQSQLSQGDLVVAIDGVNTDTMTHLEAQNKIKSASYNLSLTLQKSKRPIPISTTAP

SHANK1, Q9Y566 = target: T6, SHANK1, Q9Y566
T6 sequence (Q9Y566 658-767, limits assumed, looked up): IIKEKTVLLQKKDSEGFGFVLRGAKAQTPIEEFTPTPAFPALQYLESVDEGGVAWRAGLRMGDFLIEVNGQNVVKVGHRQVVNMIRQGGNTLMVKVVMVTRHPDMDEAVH

PDZD7_3, Q9H5P4 = target: T7, PDZD7_3, Q9H5P4
T7 sequence (Q9H5P4 857-944, limits assumed, looked up): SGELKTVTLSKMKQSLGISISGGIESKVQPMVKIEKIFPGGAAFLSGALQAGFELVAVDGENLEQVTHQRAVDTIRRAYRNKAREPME

LNX1_1, Q8TBB1 = target: LNX1_1, Q8TBB1
Sequence of LNX1_1, Q8TBB1 (Q8TBB1 261-371): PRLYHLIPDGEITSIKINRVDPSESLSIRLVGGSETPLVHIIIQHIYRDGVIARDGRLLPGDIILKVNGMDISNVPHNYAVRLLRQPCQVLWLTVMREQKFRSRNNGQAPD

PTPN3, P26045 = target: PTPN3, P26045
Sequence of PTPN3, P26045 (P26045 505-587): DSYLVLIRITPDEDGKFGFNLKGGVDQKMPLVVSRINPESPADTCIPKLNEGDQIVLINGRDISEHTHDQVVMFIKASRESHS

LIN7B, Q9HAP6 = target: T8, LIN7B, Q9HAP6
T8 sequence (Q9HAP6 88-185, limits assumed, looked up): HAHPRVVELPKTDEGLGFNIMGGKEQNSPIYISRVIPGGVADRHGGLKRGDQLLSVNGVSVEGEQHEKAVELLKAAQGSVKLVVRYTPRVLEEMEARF

ARHGAP21, Q5T5U3 = target: T9, ARHGAP21, Q5T5U3
T9 sequence (Q5T5U3 45-169, limits assumed, looked up): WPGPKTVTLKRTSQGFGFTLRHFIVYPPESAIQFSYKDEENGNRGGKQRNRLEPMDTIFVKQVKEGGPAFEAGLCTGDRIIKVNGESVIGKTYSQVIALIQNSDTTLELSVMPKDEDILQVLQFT

DLG3_1, Q92796 = target: T10, DLG3_1, Q92796
T10 sequence (Q92796 125-227, limits assumed, looked up): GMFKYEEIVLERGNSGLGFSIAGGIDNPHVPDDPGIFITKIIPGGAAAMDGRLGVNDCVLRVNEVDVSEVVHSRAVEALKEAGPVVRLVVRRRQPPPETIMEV

DLG1_1, Q12959 = target: DLG1_1, Q12959
MAST1, Q9Y2H9 = target: MAST1, Q9Y2H9
Sequence of MAST1, Q9Y2H9 (Q9Y2H9 962-1065): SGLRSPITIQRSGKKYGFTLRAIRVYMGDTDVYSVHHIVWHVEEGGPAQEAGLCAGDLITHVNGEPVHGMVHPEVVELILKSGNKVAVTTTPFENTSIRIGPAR

IL16_1, Q14005 = target: IL16_1, Q14005
Sequence of IL16_1, Q14005 (Q14005 210-306): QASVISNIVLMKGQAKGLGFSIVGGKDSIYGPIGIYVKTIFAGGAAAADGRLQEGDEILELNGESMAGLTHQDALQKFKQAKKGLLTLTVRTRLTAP

TIAM2, Q8IVF5 = target: T11, TIAM2, Q8IVF5
T11 sequence (Q8IVF5 885-986, limits assumed, looked up): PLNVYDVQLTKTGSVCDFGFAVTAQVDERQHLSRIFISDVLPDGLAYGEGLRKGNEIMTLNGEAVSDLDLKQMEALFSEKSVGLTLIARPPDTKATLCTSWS

PARD3_3, Q8TEW0 = target: PARD3_3, Q8TEW0
Sequence of PARD3_3, Q8TEW0 (Q8TEW0 582-685): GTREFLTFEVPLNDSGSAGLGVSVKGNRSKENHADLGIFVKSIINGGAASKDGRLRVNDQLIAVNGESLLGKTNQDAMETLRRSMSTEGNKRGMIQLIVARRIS

DFNB31_1, Q9P202 = target: T12, DFNB31_1, Q9P202
T12 sequence (Q9P202 135-233, limits assumed, looked up): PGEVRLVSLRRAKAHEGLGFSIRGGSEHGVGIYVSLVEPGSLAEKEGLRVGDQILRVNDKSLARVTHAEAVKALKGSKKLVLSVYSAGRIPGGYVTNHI

SCRIB_3, Q14160 = target: SCRIB_3, Q14160
Sequence of SCRIB_3, Q14160 (Q14160 999-1103): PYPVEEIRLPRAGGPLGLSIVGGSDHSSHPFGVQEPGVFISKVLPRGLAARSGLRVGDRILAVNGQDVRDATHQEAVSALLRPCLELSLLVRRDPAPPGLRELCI

HTRA2, O43464 = target: HTRA2, O43464
Sequence of HTRA2, O43464 (O43464 355-458): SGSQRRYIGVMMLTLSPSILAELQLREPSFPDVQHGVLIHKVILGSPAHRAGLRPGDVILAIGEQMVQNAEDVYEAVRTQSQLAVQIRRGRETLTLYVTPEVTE

ARHGEF12, Q9NZN5-2 = target: ARHGEF12, Q9NZN5-2
Sequence of ARHGEF12, Q9NZN5-2 (Q9NZN5 other isoform, or with tags, fused parts or gaps): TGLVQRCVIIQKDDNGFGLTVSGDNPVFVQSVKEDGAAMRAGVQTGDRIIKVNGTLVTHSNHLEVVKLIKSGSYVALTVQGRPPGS

SCRIB_2, Q14160 = target: SCRIB_2, Q14160
Sequence of SCRIB_2, Q14160 (Q14160 857-960): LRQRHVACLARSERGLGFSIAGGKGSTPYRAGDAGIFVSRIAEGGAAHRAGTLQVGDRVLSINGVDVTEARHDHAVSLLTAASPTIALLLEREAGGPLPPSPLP

B1: UNC93A, Q86WB7 (peptide)
chain: AEDEEIQTKM
MPP7, Q5T2T1
  pKd: below the threshold
GOPC, Q9HD26
  pKd: below the threshold
MPDZ_12, O75970
  pKd: below the threshold
PDZRN3_1, Q9UPQ7
  pKd: below the threshold
MAGI2_4, Q86UL8
  pKd: below the threshold
DLG3_3, Q92796
  pKd: below the threshold
RHPN1, Q8TCX5
  pKd: 3.67
LDB3, O75112
  pKd: below the threshold
SHANK1, Q9Y566
  pKd: 5.21
PDZD7_3, Q9H5P4
  pKd: below the threshold
LNX1_1, Q8TBB1
  pKd: below the threshold
PTPN3, P26045
  pKd: 4.17
LIN7B, Q9HAP6
  pKd: below the threshold
ARHGAP21, Q5T5U3
  pKd: 3.9
DLG3_1, Q92796
  pKd: below the threshold
DLG1_1, Q12959
  pKd: below the threshold
MAST1, Q9Y2H9
  pKd: 4.72
IL16_1, Q14005
  pKd: below the threshold
TIAM2, Q8IVF5
  pKd: below the threshold
PARD3_3, Q8TEW0
  pKd: below the threshold
DFNB31_1, Q9P202
  pKd: below the threshold
SCRIB_3, Q14160
  pKd: below the threshold
HTRA2, O43464
  pKd: below the threshold
ARHGEF12, Q9NZN5-2
  pKd: below the threshold
SCRIB_2, Q14160
  pKd: below the threshold

B2: NECTIN3, Q9NQS3 (peptide)
chain: SVISRREWYV
MPP7, Q5T2T1
  pKd: 4.93
GOPC, Q9HD26
  pKd: below the threshold
MPDZ_12, O75970
  pKd: below the threshold
PDZRN3_1, Q9UPQ7
  pKd: below the threshold
MAGI2_4, Q86UL8
  pKd: 4.11
DLG3_3, Q92796
  pKd: 3.71
RHPN1, Q8TCX5
  pKd: below the threshold
LDB3, O75112
  pKd: below the threshold
SHANK1, Q9Y566
  pKd: below the threshold
PDZD7_3, Q9H5P4
  pKd: below the threshold
LNX1_1, Q8TBB1
  pKd: below the threshold
PTPN3, P26045
  pKd: 4.25
LIN7B, Q9HAP6
  pKd: below the threshold
ARHGAP21, Q5T5U3
  pKd: 4.29
DLG3_1, Q92796
  pKd: below the threshold
DLG1_1, Q12959
  pKd: below the threshold
MAST1, Q9Y2H9
  pKd: 4.34
IL16_1, Q14005
  pKd: 3.88
TIAM2, Q8IVF5
  pKd: 5.1
PARD3_3, Q8TEW0
  pKd: 4.75
DFNB31_1, Q9P202
  pKd: below the threshold
SCRIB_3, Q14160
  pKd: 3.72
HTRA2, O43464
  pKd: 4.6
ARHGEF12, Q9NZN5-2
  pKd: 3.64
SCRIB_2, Q14160
  pKd: below the threshold

B3: SCN4A, P35499 (peptide)
chain: VRPGVKESLV
MPP7, Q5T2T1
  pKd: below the threshold
GOPC, Q9HD26
  pKd: below the threshold
MPDZ_12, O75970
  pKd: below the threshold
PDZRN3_1, Q9UPQ7
  pKd: 4.38
MAGI2_4, Q86UL8
  pKd: 4.37
DLG3_3, Q92796
  pKd: 4.1
RHPN1, Q8TCX5
  pKd: 4.33
LDB3, O75112
  pKd: below the threshold
SHANK1, Q9Y566
  pKd: below the threshold
PDZD7_3, Q9H5P4
  pKd: 5.05
LNX1_1, Q8TBB1
  pKd: 3.89
PTPN3, P26045
  pKd: 4.78
LIN7B, Q9HAP6
  pKd: 4.04
ARHGAP21, Q5T5U3
  pKd: below the threshold
DLG3_1, Q92796
  pKd: 4.5
DLG1_1, Q12959
  pKd: 4.71
MAST1, Q9Y2H9
  pKd: 4.19
IL16_1, Q14005
  pKd: 4.78
TIAM2, Q8IVF5
  pKd: below the threshold
PARD3_3, Q8TEW0
  pKd: below the threshold
DFNB31_1, Q9P202
  pKd: 3.73
SCRIB_3, Q14160
  pKd: 4.34
HTRA2, O43464
  pKd: below the threshold
ARHGEF12, Q9NZN5-2
  pKd: below the threshold
SCRIB_2, Q14160
  pKd: 4.18

B4: YAP1, P46937 (peptide)
chain: LDKESFLTWL
MPP7, Q5T2T1
  pKd: 3.72
GOPC, Q9HD26
  pKd: 3.87
MPDZ_12, O75970
  pKd: 4.98
PDZRN3_1, Q9UPQ7
  pKd: 3.73
MAGI2_4, Q86UL8
  pKd: 3.94
DLG3_3, Q92796
  pKd: below the threshold
RHPN1, Q8TCX5
  pKd: 4.7
LDB3, O75112
  pKd: 4.36
SHANK1, Q9Y566
  pKd: 5.4
PDZD7_3, Q9H5P4
  pKd: 4.92
LNX1_1, Q8TBB1
  pKd: 4.25
PTPN3, P26045
  pKd: 4.62
LIN7B, Q9HAP6
  pKd: 3.48
ARHGAP21, Q5T5U3
  pKd: 4.89
DLG3_1, Q92796
  pKd: below the threshold
DLG1_1, Q12959
  pKd: 4.01
MAST1, Q9Y2H9
  pKd: 4.28
IL16_1, Q14005
  pKd: 3.55
TIAM2, Q8IVF5
  pKd: 3.6
PARD3_3, Q8TEW0
  pKd: 4.98
DFNB31_1, Q9P202
  pKd: 3.77
SCRIB_3, Q14160
  pKd: 5.02
HTRA2, O43464
  pKd: 4.73
ARHGEF12, Q9NZN5-2
  pKd: 4.84
SCRIB_2, Q14160
  pKd: below the threshold

B5: PKN2, Q16513 (peptide)
chain: RDFDYIADWC
MPP7, Q5T2T1
  pKd: below the threshold
GOPC, Q9HD26
  pKd: below the threshold
MPDZ_12, O75970
  pKd: 4.2
PDZRN3_1, Q9UPQ7
  pKd: below the threshold
MAGI2_4, Q86UL8
  pKd: 3.53
DLG3_3, Q92796
  pKd: below the threshold
RHPN1, Q8TCX5
  pKd: below the threshold
LDB3, O75112
  pKd: below the threshold
SHANK1, Q9Y566
  pKd: below the threshold
PDZD7_3, Q9H5P4
  pKd: below the threshold
LNX1_1, Q8TBB1
  pKd: below the threshold
PTPN3, P26045
  pKd: 3.85
LIN7B, Q9HAP6
  pKd: 3.9
ARHGAP21, Q5T5U3
  pKd: 3.71
DLG3_1, Q92796
  pKd: below the threshold
DLG1_1, Q12959
  pKd: below the threshold
MAST1, Q9Y2H9
  pKd: 3.8
IL16_1, Q14005
  pKd: below the threshold
TIAM2, Q8IVF5
  pKd: 4.19
PARD3_3, Q8TEW0
  pKd: 3.76
DFNB31_1, Q9P202
  pKd: 3.69
SCRIB_3, Q14160
  pKd: 3.49
HTRA2, O43464
  pKd: 5.11
ARHGEF12, Q9NZN5-2
  pKd: below the threshold
SCRIB_2, Q14160
  pKd: below the threshold

B6: ADAM17, P78536 (peptide)
chain: NRVDSKETEC
MPP7, Q5T2T1
  pKd: 3.65
GOPC, Q9HD26
  pKd: below the threshold
MPDZ_12, O75970
  pKd: below the threshold
PDZRN3_1, Q9UPQ7
  pKd: 3.57
MAGI2_4, Q86UL8
  pKd: 3.53
DLG3_3, Q92796
  pKd: 3.95
RHPN1, Q8TCX5
  pKd: below the threshold
LDB3, O75112
  pKd: below the threshold
SHANK1, Q9Y566
  pKd: below the threshold
PDZD7_3, Q9H5P4
  pKd: below the threshold
LNX1_1, Q8TBB1
  pKd: below the threshold
PTPN3, P26045
  pKd: 4.98
LIN7B, Q9HAP6
  pKd: 4.05
ARHGAP21, Q5T5U3
  pKd: below the threshold
DLG3_1, Q92796
  pKd: 3.77
DLG1_1, Q12959
  pKd: 4.32
MAST1, Q9Y2H9
  pKd: 3.88
IL16_1, Q14005
  pKd: below the threshold
TIAM2, Q8IVF5
  pKd: 3.92
PARD3_3, Q8TEW0
  pKd: below the threshold
DFNB31_1, Q9P202
  pKd: 3.72
SCRIB_3, Q14160
  pKd: 4.58
HTRA2, O43464
  pKd: below the threshold
ARHGEF12, Q9NZN5-2
  pKd: 3.95
SCRIB_2, Q14160
  pKd: below the threshold
